According to patent US20190360025A1:
Blank lines part the entries; values can stand above or below the substance they belong to.

Legend:
[1] = target: tumor necrosis factor alpha (TNF-α), R&D Systems 210-TA-005 (UniProt P01375); test: c-PLA, buffer; TNF-α 1.00E-09 M
[2] = target: tumor necrosis factor alpha (TNF-α), R&D Systems 210-TA-005 (UniProt P01375); test: c-PLA, buffer; TNF-α 1.00E-10 M
[3] = target: tumor necrosis factor alpha (TNF-α), R&D Systems 210-TA-005 (UniProt P01375); test: c-PLA, buffer; TNF-α 1.00E-11 M
[4] = target: tumor necrosis factor alpha (TNF-α), R&D Systems 210-TA-005 (UniProt P01375); test: t-PLA, buffer; TNF-α 1.00E-11 M
[5] = target: tumor necrosis factor alpha (TNF-α), R&D Systems 210-TA-005 (UniProt P01375); test: t-PLA, buffer; TNF-α 5.00E-07 M
[6] = target: tumor necrosis factor alpha (TNF-α), R&D Systems 210-TA-005 (UniProt P01375); test: t-PLA 1X probes, buffer; TNF-α 1.00E-08 M
[7] = target: tumor necrosis factor alpha (TNF-α), R&D Systems 210-TA-005 (UniProt P01375); test: t-PLA 10X probes, buffer; TNF-α 1.00E-10 M
[8] = target: tumor necrosis factor alpha (TNF-α), R&D Systems 210-TA-005 (UniProt P01375); test: t-PLA 10X probes, buffer; TNF-α 1.00E-11 M
[9] = target: tumor necrosis factor alpha (TNF-α), R&D Systems 210-TA-005 (UniProt P01375); test: c-PLA 1X probes, human plasma; TNF-α 1.00E-10 M
[10] = target: tumor necrosis factor alpha (TNF-α), R&D Systems 210-TA-005 (UniProt P01375); test: t-PLA 1X probes, human plasma; TNF-α 1.00E-13 M
[11] = target: tumor necrosis factor alpha (TNF-α), R&D Systems 210-TA-005 (UniProt P01375); test: c-PLA 10X probes, human plasma; TNF-α 1.00E-10 M
[12] = target: tumor necrosis factor alpha (TNF-α), R&D Systems 210-TA-005 (UniProt P01375); test: c-PLA 10X probes, human plasma; TNF-α 1.00E-12 M
[13] = target: tumor necrosis factor alpha (TNF-α), R&D Systems 210-TA-005 (UniProt P01375); test: t-PLA 10X probes, human plasma; TNF-α 1.00E-08 M
[14] = target: tumor necrosis factor alpha (TNF-α), R&D Systems 210-TA-005 (UniProt P01375); test: t-PLA 10X probes, human plasma; TNF-α 1.00E-11 M
[15] = target: tumor necrosis factor alpha (TNF-α), R&D Systems 210-TA-005 (UniProt P01375); test: t-PLA 10X probes, human plasma; TNF-α 1.00E-12 M
[16] = target: tumor necrosis factor alpha (TNF-α), R&D Systems 210-TA-005 (UniProt P01375); test: BLI (Octet RED), antibody on protein G sensors, 1:1 global fit
[17] = target: vascular endothelial growth factor (VEGF), R&D Systems 293-VE-010 (human) (UniProt P15692); test: c-PLA, buffer; VEGF 1.00E-10 M
Chain of UniProt P15692 (P15692 other isoform, or with tags, fused parts or gaps limits assumed): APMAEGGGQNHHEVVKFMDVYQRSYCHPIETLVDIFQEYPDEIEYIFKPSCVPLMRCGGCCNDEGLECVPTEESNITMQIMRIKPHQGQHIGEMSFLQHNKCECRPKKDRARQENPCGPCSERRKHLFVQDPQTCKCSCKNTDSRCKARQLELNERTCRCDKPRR

[18] = target: vascular endothelial growth factor (VEGF), R&D Systems 293-VE-010 (human) (UniProt P15692); test: c-PLA, buffer; VEGF 1.00E-11 M
[19] = target: vascular endothelial growth factor (VEGF), R&D Systems 293-VE-010 (human) (UniProt P15692); test: c-PLA, buffer; VEGF 1.00E-14 M
[20] = target: vascular endothelial growth factor (VEGF), R&D Systems 293-VE-010 (human) (UniProt P15692); test: t-PLA, buffer; VEGF 1.00E-10 M
[21] = target: vascular endothelial growth factor (VEGF), R&D Systems 293-VE-010 (human) (UniProt P15692); test: t-PLA, human plasma; VEGF 1.00E-08 M
[22] = target: vascular endothelial growth factor (VEGF), R&D Systems 293-VE-010 (human) (UniProt P15692); test: t-PLA, human plasma; VEGF 1.00E-14 M
[23] = target: vascular endothelial growth factor (VEGF), R&D Systems 293-VE-010 (human) (UniProt P15692); test: c-PLA, chicken plasma; VEGF 1.00E-13 M
[24] = target: vascular endothelial growth factor (VEGF), R&D Systems 293-VE-010 (human) (UniProt P15692); test: t-PLA, chicken plasma; VEGF 1.00E-08 M
[25] = target: vascular endothelial growth factor (VEGF), R&D Systems 293-VE-010 (human) (UniProt P15692); test: t-PLA, chicken plasma; VEGF 1.00E-12 M
[26] = target: vascular endothelial growth factor (VEGF), R&D Systems 293-VE-010 (human) (UniProt P15692); test: t-PLA, chicken plasma; VEGF 1.00E-13 M
[27] = target: vascular endothelial growth factor (VEGF), R&D Systems 293-VE-010 (human) (UniProt P15692); test: t-PLA, chicken plasma; VEGF 1.00E-14 M
[28] = target: vascular endothelial growth factor (VEGF), R&D Systems 293-VE-010 (human) (UniProt P15692); test: c-PLA with preamplification; VEGF 1.00E-09 M
[29] = target: vascular endothelial growth factor (VEGF), R&D Systems 293-VE-010 (human) (UniProt P15692); test: BLI (Octet RED), antibody on protein G sensors, 1:1 global fit

Chain of UniProt P01375 (P01375 77-233 limits assumed): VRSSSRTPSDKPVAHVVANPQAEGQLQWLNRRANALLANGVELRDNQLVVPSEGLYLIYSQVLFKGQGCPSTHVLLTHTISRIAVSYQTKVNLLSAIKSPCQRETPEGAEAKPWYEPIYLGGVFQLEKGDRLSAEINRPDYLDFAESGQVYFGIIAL

Substance: affinity-purified polyclonal anti-TNF-α antibody (R&D Systems AF-210-NA)
Counts [1]: 3700 | SBR [1]: 328 | Counts [2]: 260 | Counts [3]: 22.1 | Counts [4]: 443000 | SBR [4]: 2.6 | Counts [5]: 1.33e+08 | SBR [5]: 780 | Counts [6]: 5.4e+07 | SBR [6]: 65 | Counts [7]: 2.75e+07 | SBR [7]: 4.8 | Counts [8]: 7.03e+06 | SBR [8]: 1.2 | Counts [9]: 331 | SBR [9]: 4.4 | Counts [10]: 203000 | Counts [11]: 7420 | Counts [12]: 2260 | Counts [13]: 3.81e+08 | SBR [13]: 33 | Counts [14]: 4.13e+06 | SBR [15]: 2.4 | Kd [16]: 6.43 nM

Counts [17]: 95900 | SBR [17]: 3230 | Counts [18]: 4820 | SBR [18]: 162 | Counts [19]: 203 | SBR [19]: 6.8 | Counts [20]: 7.59e+08 | SBR [20]: 2190 | Counts [21]: 8.23e+07 | SBR [21]: 51 | Counts [22]: 1.63e+06 | Counts [23]: 29 | SBR [23]: 3.1 | Counts [24]: 1.49e+08 | SBR [24]: 2230 | Counts [25]: 787000 | SBR [25]: 12 | Counts [26]: 133000 | Counts [27]: 71600 | SBR [27]: 1.1 | Counts [28]: 2.36e+08 | SBR [28]: 3970 | Kd [29]: 0.057 nM
Substance: affinity-purified polyclonal anti-VEGF antibody (R&D Systems AF-293-NA)
